Source: paper PMC9482650, “Quantitative fragmentomics allow affinity mapping of interactomes” (Nature Communications, 2022)

T1: LIN7A, O14910
T1 sequence (O14910 103-200, limits assumed, looked up): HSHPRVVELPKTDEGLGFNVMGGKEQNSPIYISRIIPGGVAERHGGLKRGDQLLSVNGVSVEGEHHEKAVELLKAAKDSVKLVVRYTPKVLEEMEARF

T2: PCLO, Q9Y6V0
T2 sequence (Q9Y6V0 4491-4600, limits assumed, looked up): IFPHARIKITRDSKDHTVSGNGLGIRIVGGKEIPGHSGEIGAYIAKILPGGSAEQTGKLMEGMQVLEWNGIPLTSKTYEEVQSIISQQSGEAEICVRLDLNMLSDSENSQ

T3: NHERF3_4, Q5T2W1
T3 sequence (Q5T2W1 373-468, limits assumed, looked up): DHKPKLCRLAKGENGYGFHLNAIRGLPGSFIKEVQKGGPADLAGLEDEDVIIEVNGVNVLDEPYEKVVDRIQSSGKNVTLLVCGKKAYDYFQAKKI

T4: DLG3_1, Q92796
T4 sequence (Q92796 125-227, limits assumed, looked up): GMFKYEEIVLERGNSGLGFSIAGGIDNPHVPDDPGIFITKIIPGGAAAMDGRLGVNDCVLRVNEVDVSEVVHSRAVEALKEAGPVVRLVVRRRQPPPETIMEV

T5: MPP6, Q9NZW5
T5 sequence (Q9NZW5 125-219, limits assumed, looked up): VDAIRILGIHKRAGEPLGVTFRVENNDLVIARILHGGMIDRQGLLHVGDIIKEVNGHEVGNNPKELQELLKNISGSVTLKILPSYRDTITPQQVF

T6: SNTA1, Q13424
T6 sequence (Q13424 82-180, limits assumed, looked up): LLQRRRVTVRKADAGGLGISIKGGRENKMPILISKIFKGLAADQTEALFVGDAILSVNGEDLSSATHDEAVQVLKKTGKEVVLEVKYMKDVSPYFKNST

T7: SIPA1L2, Q9P2F8
T7 sequence (Q9P2F8 945-1036, limits assumed, looked up): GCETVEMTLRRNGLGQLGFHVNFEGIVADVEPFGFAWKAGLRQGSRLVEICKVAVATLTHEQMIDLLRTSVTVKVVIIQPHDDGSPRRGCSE

T8: MPDZ_5, O75970
T8 sequence (O75970 695-796, limits assumed, looked up): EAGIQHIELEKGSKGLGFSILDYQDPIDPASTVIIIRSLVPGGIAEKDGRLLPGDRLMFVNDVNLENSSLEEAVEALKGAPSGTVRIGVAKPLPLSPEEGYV

T9: NHERF3_1, Q5T2W1
T9 sequence (Q5T2W1 4-100, limits assumed, looked up): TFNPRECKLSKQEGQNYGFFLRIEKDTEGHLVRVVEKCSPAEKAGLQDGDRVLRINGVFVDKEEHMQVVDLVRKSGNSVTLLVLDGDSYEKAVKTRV

T10: DFNB31_3, Q9P202
T10 sequence (Q9P202 811-907, limits assumed, looked up): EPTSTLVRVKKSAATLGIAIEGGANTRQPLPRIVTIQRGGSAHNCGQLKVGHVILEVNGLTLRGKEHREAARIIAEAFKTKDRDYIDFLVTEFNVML

T11: PDZD2_2, O15018
T11 sequence (O15018 329-429, limits assumed, looked up): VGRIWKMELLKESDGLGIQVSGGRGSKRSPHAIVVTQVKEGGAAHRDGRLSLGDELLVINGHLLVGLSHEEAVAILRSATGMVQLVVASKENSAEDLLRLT

B1: FAM167B, Q9BTA0 (peptide)
chain: NISARRFTLC
B2: DUSP5, Q16690 (peptide)
chain: RSPVATATSC

The binders below were run against HTRA2, O43464 (assay: holdup assay). Settings: plain residues with an end cap or a label only (N-terminal biotin on a linker: ado-ado).
HTRA2, O43464, sequence (O43464 355-458): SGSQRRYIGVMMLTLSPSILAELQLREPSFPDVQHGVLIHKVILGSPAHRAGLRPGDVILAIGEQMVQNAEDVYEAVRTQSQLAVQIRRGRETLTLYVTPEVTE
Set-up: key: below the threshold = too weak to quantify, mostly under pKd 3.1 to 4
B1 showed a pKd of 4.44.
B2 was tested, and the pKd was “below the threshold”.

What follows are binders tested against T1, LIN7A, O14910 (assay: holdup assay). Settings: plain residues with an end cap or a label only (N-terminal biotin on a linker: ado-ado).
Set-up: key: below the threshold = too weak to quantify, mostly under pKd 3.1 to 4
In the case of B1, the pKd is reported as “below the threshold”.
For B2, the pKd was “below the threshold”.

These binders were tested against T2, PCLO, Q9Y6V0 (assay: holdup assay). Settings: plain residues with an end cap or a label only (N-terminal biotin on a linker: ado-ado).
Set-up: key: below the threshold = too weak to quantify, mostly under pKd 3.1 to 4
With B1 the pKd was “below the threshold”.
With B2 the pKd was “below the threshold”.

What follows are binders tested against T3, NHERF3_4, Q5T2W1 (assay: holdup assay). Settings: plain residues with an end cap or a label only (N-terminal biotin on a linker: ado-ado).
Set-up: key: below the threshold = too weak to quantify, mostly under pKd 3.1 to 4
With B1 the pKd was “below the threshold”.
B2 was tested, and the pKd was “below the threshold”.

What follows are binders tested against GOPC, Q9HD26 (assay: holdup assay). Settings: plain residues with an end cap or a label only (N-terminal biotin on a linker: ado-ado).
Set-up: key: below the threshold = too weak to quantify, mostly under pKd 3.1 to 4
B1 was tested, and the pKd was “below the threshold”.
In the case of B2, the pKd is reported as “below the threshold”.

What follows are binders tested against T4, DLG3_1, Q92796 (assay: holdup assay). Settings: plain residues with an end cap or a label only (N-terminal biotin on a linker: ado-ado).
Set-up: key: below the threshold = too weak to quantify, mostly under pKd 3.1 to 4
Binder B1 has a pKd of 3.98.
With B2 the pKd was “below the threshold”.

The binders below were run against T5, MPP6, Q9NZW5 (assay: holdup assay). Settings: plain residues with an end cap or a label only (N-terminal biotin on a linker: ado-ado).
Set-up: key: below the threshold = too weak to quantify, mostly under pKd 3.1 to 4
B1 was tested, and the pKd was “below the threshold”.
In the case of B2, the pKd is reported as “below the threshold”.

These binders were tested against CASK, O14936 (assay: holdup assay). Settings: plain residues with an end cap or a label only (N-terminal biotin on a linker: ado-ado).
CASK, O14936, sequence (O14936 487-570): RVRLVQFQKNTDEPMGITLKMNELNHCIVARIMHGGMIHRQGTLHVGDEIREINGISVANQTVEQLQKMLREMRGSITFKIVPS
Set-up: key: below the threshold = too weak to quantify, mostly under pKd 3.1 to 4
B1 was tested, and the pKd was “below the threshold”.
B2 was tested, and the pKd was “below the threshold”.

The binders below were run against T6, SNTA1, Q13424 (assay: holdup assay). Settings: plain residues with an end cap or a label only (N-terminal biotin on a linker: ado-ado).
Set-up: key: below the threshold = too weak to quantify, mostly under pKd 3.1 to 4
In the case of B1, the pKd is reported as “below the threshold”.
For B2, the pKd was “below the threshold”.

The binders below were run against DLG1_2, Q12959 (assay: holdup assay). Settings: plain residues with an end cap or a label only (N-terminal biotin on a linker: ado-ado).
Set-up: key: below the threshold = too weak to quantify, mostly under pKd 3.1 to 4
Binder B1 has a pKd of 3.92.
With B2 the pKd was “below the threshold”.

What follows are binders tested against FRMPD3, Q5JV73 (assay: holdup assay). Settings: plain residues with an end cap or a label only (N-terminal biotin on a linker: ado-ado).
FRMPD3, Q5JV73, sequence (Q5JV73 12-100): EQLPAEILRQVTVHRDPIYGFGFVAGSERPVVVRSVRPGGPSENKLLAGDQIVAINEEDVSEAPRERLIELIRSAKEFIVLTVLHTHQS
Set-up: key: below the threshold = too weak to quantify, mostly under pKd 3.1 to 4
In the case of B1, the pKd is reported as “below the threshold”.
B2 was tested, and the pKd was “below the threshold”.

Each binder was assayed against T7, SIPA1L2, Q9P2F8 (assay: holdup assay). Settings: plain residues with an end cap or a label only (N-terminal biotin on a linker: ado-ado).
Set-up: key: below the threshold = too weak to quantify, mostly under pKd 3.1 to 4
With B1 the pKd was 3.73.
B2 was tested, and the pKd was “below the threshold”.

Each binder was assayed against T8, MPDZ_5, O75970 (assay: holdup assay). Settings: plain residues with an end cap or a label only (N-terminal biotin on a linker: ado-ado).
Set-up: key: below the threshold = too weak to quantify, mostly under pKd 3.1 to 4
B1 was tested, and the pKd was “below the threshold”.
In the case of B2, the pKd is reported as “below the threshold”.

The binders below were run against T9, NHERF3_1, Q5T2W1 (assay: holdup assay). Settings: plain residues with an end cap or a label only (N-terminal biotin on a linker: ado-ado).
Set-up: key: below the threshold = too weak to quantify, mostly under pKd 3.1 to 4
B1 was tested, and the pKd was 4.11.
With B2 the pKd was 3.53.

These binders were tested against DLG1_1, Q12959 (assay: holdup assay). Settings: plain residues with an end cap or a label only (N-terminal biotin on a linker: ado-ado).
Set-up: key: below the threshold = too weak to quantify, mostly under pKd 3.1 to 4
B1 gave a pKd of 4.31.
For B2, the pKd was “below the threshold”.

These binders were tested against NHERF2_2, Q15599 (assay: holdup assay). Settings: plain residues with an end cap or a label only (N-terminal biotin on a linker: ado-ado).
NHERF2_2, Q15599, sequence (Q15599 142-238): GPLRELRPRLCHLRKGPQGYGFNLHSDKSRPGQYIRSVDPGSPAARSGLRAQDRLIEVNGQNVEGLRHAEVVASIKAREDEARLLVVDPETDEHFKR
Set-up: key: below the threshold = too weak to quantify, mostly under pKd 3.1 to 4
B1 was tested, and the pKd was “below the threshold”.
B2 was tested, and the pKd was “below the threshold”.

The binders below were run against IL16_3, Q14005 (assay: holdup assay). Settings: plain residues with an end cap or a label only (N-terminal biotin on a linker: ado-ado).
IL16_3, Q14005, sequence (Q14005 1107-1207): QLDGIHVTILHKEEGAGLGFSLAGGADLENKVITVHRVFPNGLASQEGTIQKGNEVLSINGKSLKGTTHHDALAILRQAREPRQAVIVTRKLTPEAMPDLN
Set-up: key: below the threshold = too weak to quantify, mostly under pKd 3.1 to 4
With B1 the pKd was “below the threshold”.
In the case of B2, the pKd is reported as “below the threshold”.

These binders were tested against FRMPD2_3, Q68DX3 (assay: holdup assay). Settings: plain residues with an end cap or a label only (N-terminal biotin on a linker: ado-ado).
FRMPD2_3, Q68DX3, sequence (Q68DX3 1073-1166): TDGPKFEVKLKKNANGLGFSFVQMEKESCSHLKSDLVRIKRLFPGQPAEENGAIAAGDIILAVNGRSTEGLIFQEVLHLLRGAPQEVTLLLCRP
Set-up: key: below the threshold = too weak to quantify, mostly under pKd 3.1 to 4
With B1 the pKd was “below the threshold”.
In the case of B2, the pKd is reported as “below the threshold”.

What follows are binders tested against DLG1_3, Q12959 (assay: holdup assay). Settings: plain residues with an end cap or a label only (N-terminal biotin on a linker: ado-ado).
Set-up: key: below the threshold = too weak to quantify, mostly under pKd 3.1 to 4
For B1, the pKd was 4.06.
B2 was tested, and the pKd was “below the threshold”.

What follows are binders tested against GRIP2_6, Q9C0E4 (assay: holdup assay). Settings: plain residues with an end cap or a label only (N-terminal biotin on a linker: ado-ado).
GRIP2_6, Q9C0E4, sequence (Q9C0E4 648-740): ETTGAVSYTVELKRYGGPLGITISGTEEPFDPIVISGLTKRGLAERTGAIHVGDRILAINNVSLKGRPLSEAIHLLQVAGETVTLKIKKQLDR
Set-up: key: below the threshold = too weak to quantify, mostly under pKd 3.1 to 4
Binder B1 has a pKd of 3.57.
With B2 the pKd was “below the threshold”.

Each binder was assayed against T10, DFNB31_3, Q9P202 (assay: holdup assay). Settings: plain residues with an end cap or a label only (N-terminal biotin on a linker: ado-ado).
Set-up: key: below the threshold = too weak to quantify, mostly under pKd 3.1 to 4
B1 gave a pKd of 3.99.
In the case of B2, the pKd is reported as “below the threshold”.

The binders below were run against MAGI2_2, Q86UL8 (assay: holdup assay). Settings: plain residues with an end cap or a label only (N-terminal biotin on a linker: ado-ado).
MAGI2_2, Q86UL8, sequence (Q86UL8 410-522): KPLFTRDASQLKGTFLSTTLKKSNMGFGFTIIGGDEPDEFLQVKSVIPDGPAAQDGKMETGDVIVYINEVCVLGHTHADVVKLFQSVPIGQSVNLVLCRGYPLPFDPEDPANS
Set-up: key: below the threshold = too weak to quantify, mostly under pKd 3.1 to 4
B1 gave a pKd of 4.76.
In the case of B2, the pKd is reported as “below the threshold”.

The binders below were run against MAST1, Q9Y2H9 (assay: holdup assay). Settings: plain residues with an end cap or a label only (N-terminal biotin on a linker: ado-ado).
MAST1, Q9Y2H9, sequence (Q9Y2H9 962-1065): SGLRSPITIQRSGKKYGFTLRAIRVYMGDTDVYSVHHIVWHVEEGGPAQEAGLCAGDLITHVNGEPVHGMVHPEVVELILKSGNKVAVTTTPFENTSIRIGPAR
Set-up: key: below the threshold = too weak to quantify, mostly under pKd 3.1 to 4
For B1, the pKd was “below the threshold”.
Work on B2 yielded a pKd of 3.81.

Each binder was assayed against GRASP, Q7Z6J2 (assay: holdup assay). Settings: plain residues with an end cap or a label only (N-terminal biotin on a linker: ado-ado).
GRASP, Q7Z6J2, sequence (Q7Z6J2 96-193): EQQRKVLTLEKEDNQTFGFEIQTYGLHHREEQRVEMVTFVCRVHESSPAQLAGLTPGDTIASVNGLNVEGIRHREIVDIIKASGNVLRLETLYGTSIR
Set-up: key: below the threshold = too weak to quantify, mostly under pKd 3.1 to 4
For B1, the pKd was 4.36.
With B2 the pKd was “below the threshold”.

The binders below were run against GRID2IP_2, A4D2P6 (assay: holdup assay). Settings: plain residues with an end cap or a label only (N-terminal biotin on a linker: ado-ado).
GRID2IP_2, A4D2P6, sequence (A4D2P6 272-370): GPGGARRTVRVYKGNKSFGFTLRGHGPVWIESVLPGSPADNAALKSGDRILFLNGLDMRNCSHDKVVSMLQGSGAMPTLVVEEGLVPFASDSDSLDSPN
Set-up: key: below the threshold = too weak to quantify, mostly under pKd 3.1 to 4
B1 showed a pKd of 4.21.
In the case of B2, the pKd is reported as 3.79.

These binders were tested against T11, PDZD2_2, O15018 (assay: holdup assay). Settings: plain residues with an end cap or a label only (N-terminal biotin on a linker: ado-ado).
Set-up: key: below the threshold = too weak to quantify, mostly under pKd 3.1 to 4
B1 was tested, and the pKd was “below the threshold”.
With B2 the pKd was “below the threshold”.

What follows are binders tested against GRIP2_5, Q9C0E4 (assay: holdup assay). Settings: plain residues with an end cap or a label only (N-terminal biotin on a linker: ado-ado).
GRIP2_5, Q9C0E4, sequence (Q9C0E4 544-642): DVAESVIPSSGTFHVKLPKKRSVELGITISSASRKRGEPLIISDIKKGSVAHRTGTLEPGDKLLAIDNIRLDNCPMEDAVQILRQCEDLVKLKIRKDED
Set-up: key: below the threshold = too weak to quantify, mostly under pKd 3.1 to 4
With B1 the pKd was “below the threshold”.
In the case of B2, the pKd is reported as “below the threshold”.
